This note sets out measurements from publication PMC6946549 (Biochemistry, 2019).

The labels stand for the following.
B1: Ltp2 (17-hydroxy-3-oxo-4-pregnene-20-carboxyl-CoA retro-aldolase; chain gamma of the ChsH1-ChsH2-Ltp2 complex) (enzyme)
chain: MLSGQAAIVGIGATDFSKNSGRSELRLAAEAVLDALADAGLSPTDVDGLTTFTMDTNTEIAVARAAGIGELTFFSKIHYGGGAACATVQHAAMAVATGVADVVVAYRAFNERSGMRFGQVQTRLTENADSTGVDNSFSYPHGLSTPAAQVAMIARRYMHLSGATSRDFGAVSVADRKHAANNPKAYFYGKPITIEDHQNSRWIAEPLRLLDCCQETDGAVAIVVTSAARARDLKQRPVVIEAAAQGCSPDQYTMVSYYRPELDGLPEMGLVGRQLWAQSGLTPADVQTAVLYDHFTPFTLIQLEELGFCGKGEAKDFIADGAIEVGGRLPINTHGGQLGEAYIHGMNGIAEGVRQLRGTSVNPVAGVEHVLVTAGTGVPTSGLILG
B2: ChsH2 (chain beta of the ChsH1-ChsH2-Ltp2 complex) (enzyme)
chain: MTGVSDIQEAVAQIKAAGPSKPRLARDPVNQPMINNWVEAIGDRNPIYVDDAAARAAGHPGIVAPPAMIQVWTMMGLGGVRPKDDPLGPIIKLFDDAGYIGVVATNCEQTYHRYLLPGEQVSISAELGDVVGPKQTALGEGWFINQHIVWQVGDEDVAEMNWRILKFKPAGSPSSVPDDLDPDAMMRPSSSRDTAFFWDGVKAHELRIQRLADGSLRHPPVPAVWQDKSVPINYVVSSGRGTVFSFVVHHAPKVPGRTVPFVIALVELEEGVRMLGELRGADPARVAIGMPVRATYIDFPDWSLYAWEPDE

The series “negative-stain EM” deals with the molecule itself. The experiment in a line: negative-stain EM.
Series [1] has as its target B1. Description: SAXS.

On to B1, for which the binding result in the series “negative-stain EM” is “binds”.

For the molecule B2, the binding result in series [1] is “binds”.
